The values that follow come from article PMC7616709 (Molecular cell, 2024).

The data set concerns the molecule itself.

B1: WDR26 (subunit of the recombinant WDR26-CTLH E3) (natural protein, human, UniProt Q9H7D7 1-661, looked up)
chain: MQANGAGGGGGGGGGGGGGGGGGGGQGQTPELACLSAQNGESSPSSSSSAGDLAHANGLLPSAPSAASNNSNSLNVNNGVPGGAAAASSATVAAASATTAASSSLATPELGSSLKKKKRLSQSDEDVIRLIGQHLNGLGLNQTVDLLMQESGCRLEHPSATKFRNHVMEGDWDKAENDLNELKPLVHSPHAIVVRGALEISQTLLGIIVRMKFLLLQQKYLEYLEDGKVLEALQVLRCELTPLKYNTERIHVLSGYLMCSHAEDLRAKAEWEGKGTASRSKLLDKLQTYLPPSVMLPPRRLQTLLRQAVELQRDRCLYHNTKLDNNLDSVSLLIDHVCSRRQFPCYTQQILTEHCNEVWFCKFSNDGTKLATGSKDTTVIIWQVDPDTHLLKLLKTLEGHAYGVSYIAWSPDDNYLVACGPDDCSELWLWNVQTGELRTKMSQSHEDSLTSVAWNPDGKRFVTGGQRGQFYQCDLDGNLLDSWEGVRVQCLWCLSDGKTVLASDTHQRIRGYNFEDLTDRNIVQEDHPIMSFTISKNGRLALLNVATQGVHLWDLQDRVLVRKYQGVTQGFYTIHSCFGGHNEDFIASGSEDHKVYIWHKRSELPIAELTGHTRTVNCVSWNPQIPSMMASASDDGTVRIWGPAPFIDHQNIEEECSSMDS
notes: WDR26, human, from human cDNA library (pFLN WDR26); The models 8QE8 and 8QBN exclude the CTLH-CRA^N domain of WDR26; also called WDR26 dimer
B1: the stoichiometry N (usually the number of molecules, sites or subunits per partner or assembly) was 2.
